From publication PMC8430805

Experiments:
[1] = biological target: LysB endolysin (putative N-acetylmuramoyl-L-alanine amidase) from the prophage of Clostridium botuli (Clostridium botulinum E3 strain Alaska E43 (prophage)); test: SEC
[2] = biological target: LysB endolysin (putative N-acetylmuramoyl-L-alanine amidase) from the prophage of Clostridium botuli (Clostridium botulinum E3 strain Alaska E43 (prophage)); test: AUC

LysB endolysin (putative N-acetylmuramoyl-L-alanine amidase) from the prophage of Clostridium botuli (enzyme)
stoichiometry N [1]: 2 | stoichiometry N [2]: 2
